Measurements: patent US20170349669A1 (Hoffmann-La Roche, published 2017)
Numbering of substitutions follows the chain as printed. Names may count otherwise.

T1: human Ang-2-RBD-Fc (human, UniProt O15123 275-496, limits assumed)
T1 construct: domain: RBD; Used as analyte in solution; The KD is called apparent; not shown: Fc part
T1 sequence (looked up): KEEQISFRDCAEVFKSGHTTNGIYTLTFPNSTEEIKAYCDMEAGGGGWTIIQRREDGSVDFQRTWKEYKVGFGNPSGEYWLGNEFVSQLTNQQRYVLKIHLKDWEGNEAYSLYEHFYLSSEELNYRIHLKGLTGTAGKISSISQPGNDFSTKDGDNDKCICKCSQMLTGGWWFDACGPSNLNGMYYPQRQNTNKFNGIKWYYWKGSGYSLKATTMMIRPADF

T2: TWEAK (human, UniProt O43508 94-249, limits assumed)
T2 construct: The assay paragraph says only 'TWEAK'; also called human TWEAK; TNF-related weak inducer of apoptosis
T2 sequence (looked up): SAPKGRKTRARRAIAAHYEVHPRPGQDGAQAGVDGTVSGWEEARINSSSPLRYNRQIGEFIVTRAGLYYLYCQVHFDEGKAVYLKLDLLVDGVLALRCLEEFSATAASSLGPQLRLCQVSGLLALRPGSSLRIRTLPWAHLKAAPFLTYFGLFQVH

T3: human IL17 (human, UniProt Q16552 24-155)
T3 construct: Used as analyte in solution; also called IL17-A
T3 sequence (looked up): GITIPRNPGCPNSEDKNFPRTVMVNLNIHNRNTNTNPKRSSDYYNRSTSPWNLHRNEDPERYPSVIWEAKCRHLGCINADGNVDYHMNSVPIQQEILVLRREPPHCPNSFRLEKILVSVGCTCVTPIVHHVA

T4: human VEGFA-121-His (human, UniProt P15692-9 27-147)
T4 construct: Captured on an anti-His antibody surface; P15692 is the canonical VEGF-A entry, and the 121 isoform is one of its splice forms; also called VEFGA-121-His; not shown: His tag
T4 sequence (looked up): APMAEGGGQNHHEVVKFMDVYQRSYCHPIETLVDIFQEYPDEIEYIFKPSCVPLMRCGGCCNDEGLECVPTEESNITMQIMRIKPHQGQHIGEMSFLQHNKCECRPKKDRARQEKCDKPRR

B1: Ang2VEGF_467 (bispecific antibody, human IgG1, kappa)
heavy 1: not shown
light 1: EVQLVESGGGLVQPGGSLRLSCAASGYTFTNYGMNWVRQAPGKGLEWVGWINTYTGEPTYAADFKRRFTFSLDTSKSTAYLQMNSLRAEDTAVYYCAKYPHYYGSSHWYFDVWGQGTLVTVSSASTKGPSVFPLAPSSKSTSGGTAALGCLVKDYFPEPVTVSWNSGALTSGVHTFPAVLQSSGLYSLSSVVTVPSSSLGTQTYICNVNHKPSNTKVDKKVEPKSC
heavy 2: not shown
light 2: QPGLTQPPSVSVAPGQTARITCGGNNIGSKSVHWYQQKPGQAPVLVVYDDSDRPSGIPERFSGSNSGNTATLTISRVEAGDEADYYCQVWDSSSDHYVFGTGTKVTVLRTVAAPSVFIFPPSDKKLKSGTASVVCLLNNFYPREAKVQWKVDNALQSGNSQESVTEQDSKDSTYSLSSTLTLSKADYEKHKVYACEVTHQGLSSPVTKSFNRGEC
notes: Wild type CH3 domains, no knob-into-hole
B2: Ang2VEGF_470 (bispecific antibody, human IgG1, kappa)
heavy 1: not shown
light 1: B1 light 1 with K153E, K219E
heavy 2: not shown
light 2: B1 light 2 with K124E, K125E
notes: The charged substitutions are in the crossed (VEGF) arm, with Q124E added in the Ang2 light chain
B3: Ang2VEGF_469 (bispecific antibody, human IgG1, kappa)
heavy 1: not shown
light 1: B1 light 1 with K153E, K219E
heavy 2: not shown
light 2: B1 light 2 with K124E, K125Q
notes: The charged substitutions are in the crossed (VEGF) arm
B4: Ang2VEGF_468 (bispecific antibody, human IgG1, kappa)
heavy 1: not shown
light 1: B1 light 1
heavy 2: not shown
light 2: B1 light 2
notes: as for B1
B5: TweakIL17_102 (bispecific antibody, human IgG4 S228P, kappa)
heavy 1: DIQMTQSPSSVSASVGDRVTITCQASQNIYSNLAWYQQKPGKAPKLLIYTASYLASGVPSRFSGSGSGTDYTLTISSLQPEDFATYYCQTAYYNSRPDTVAFGGGTKVEIKRTVAAPSVFIFPPSDEQLKSGTASVVCLLNNFYPREAKVQWKVDNALQSGNSQESVTEQDSKDSTYSLSSTLTLSKADYEKHKVYACEVTHQGLSSPVTKSFNRGECPPCPPCPAPEFEGGPSVFLFPPKPKDTLMISRTPEVTCVVVDVSQEDPEVQFNWYVDGVEVHNAKTKPREEQFNSTYRVVSVLTVLHQDWLNGKEYKCKVSNKGLPSSIEKTISKAKGQPREPQVYTLPPCQEEMTKNQVSLWCLVKGFYPSDIAVEWESNGQPENNYKTTPPVLDSDGSFFLYSRLTVDKSRWQEGNVFSCSVMHEALHNHYTQKSLSLSL
light 1: QVQLVQSGAEVKKPGSSVKVSCKASGFDFSTYYMSWVRQAPGQGLEWMGTVYVRQGTTYYASWLNGRVTITADESTSTAYMELSSLRSEDTAVYYCARGGYNYDDAFVIWGQGTLVTVSSASTKGPSVFPLAPCSRSTSESTAALGCLVKDYFPEPVTVSWNSGALTSGVHTFPAVLQSSGLYSLSSVVTVPSSSLGTKTYTCNVDHKPSNTKVDKRVESKYG
heavy 2: EVQLVESGGGLVQPGGSLRLSCAASGFSLDSYGVHWVRQATGKGLEWVSVIWSDGTTTYNSALKSRFTISRENAKNSLYLQMNSLRAGDTAVYYCARDTHYRLYYYAMDYWGQGTTVTVSSASTKGPSVFPLAPCSRSTSESTAALGCLVEDYFPEPVTVSWNSGALTSGVHTFPAVLQSSGLYSLSSVVTVPSSSLGTKTYTCNVDHKPSNTKVDERVESKYGPPCPPCPAPEFEGGPSVFLFPPKPKDTLMISRTPEVTCVVVDVSQEDPEVQFNWYVDGVEVHNAKTKPREEQFNSTYRVVSVLTVLHQDWLNGKEYKCKVSNKGLPSSIEKTISKAKGQPREPQVCTLPPSQEEMTKNQVSLSCAVKGFYPSDIAVEWESNGQPENNYKTTPPVLDSDGSFFLVSRLTVDKSRWQEGNVFSCSVMHEALHNHYTQKSLSLSL
light 2: DIVMTQSPLSLPVTPGEPASISCRSSQSLVHSNGDTYFHWYLQKPGQSPQLLIYKVSNRFSGVPDRFSGSGSGTDFTLKISRVEAEDVGVYYCSQTTHAPFTFGQGTKLEIKRTVAAPSVFIFPPSDKKLKSGTASVVCLLNNFYPREAKVQWKVDNALQSGNSQESVTEQDSKDSTYSLSSTLTLSKADYEKHKVYACEVTHQGLSSPVTKSFNRGEC
notes: also called TweakIL17_0102
B6: TweakIL17_101 (bispecific antibody, human IgG4 S228P, kappa)
heavy 1: B5 heavy 1
light 1: B5 light 1
heavy 2: B5 heavy 2 with E151K, E217K
light 2: B5 light 2 with K128E, K129Q
notes: also called TweakIL17_101 (wt); TweakIL17_0101
B7: TweakIL17_103 (bispecific antibody, human IgG4 S228P, kappa)
heavy 1: B5 heavy 1 with Q128E
light 1: B5 light 1
heavy 2: B5 heavy 2
light 2: B5 light 2
notes: also called TweakIL17_0103
B8: TweakIL17_0128 (bispecific antibody, human IgG4 S228P, kappa)
heavy 1: B5 heavy 1 with Q38E, Q128E
light 1: B5 light 1 with Q39K
heavy 2: B5 heavy 2 with Q39E
light 2: B5 light 2 with Q43K
notes: also called TweakIL17_128

What follows are binders tested against T1, human Ang-2-RBD-Fc (assay: SPR Biacore T200, apparent KD, antibody captured via anti-human F(ab')2, Ang2-RBD-Fc as analyte).
Method: (§1) Binding of indicated antibodies to human Ang-2-RBD-Fc was investigated by surface plasmon resonance using a BIACORE® T200 instrument (GE Healthcare). Around 8000 (RU) of goat anti human F(ab′)₂ (10 μg/ml anti human F(ab)′₂; Order Code: 28958325; GE Healthcare Bio-Sciences AB, Sweden) were coupled on a Series S CM5 chip (GE Healthcare BR-1005-30) at pH 5.0 by using an amine coupling kit supplied by the GE Healthcare. HBS-N (10 mM HEPES, 150 mM NaCl pH 7.4, GE Healthcare) was used as running buffer during the immobilization procedure. For the following kinetic characterization, sample and running buffer was PBS-T (10 mM phosphate buffered saline including 0.05% Tween20) at pH 7.4. The flow cell was set to 25° C.—and the sample block set to 12° C.—and primed with running buffer twice prior to kinetic characterization.
The bispecific antibody was captured by injecting a 5 nM solution for 25 sec at a flow of 5 μl/min. The association was measured by injection of human Ang2-RBD-Fc in various concentrations in solution for 120 sec at a flow of 30 μl/min starting with 100 nM in 1:3 serial dilutions. The dissociation phase was monitored for up to 180 sec and triggered by switching from the sample solution to running buffer. The surface was regenerated by 60 sec washing with a Glycine pH 2.1 solution at a flow rate of 30 μl/min. Bulk refractive index differences were corrected by subtracting the response obtained from a goat anti human F(ab′)₂ surface. Blank injections are also subtracted (=double referencing). For calculation of apparent KD the Langmuir 1:1 model was used.
Work on B1 yielded a Kd of 0.5 nM.
B2 was tested, and the Kd was 3 nM.
In the case of B3, the Kd is reported as 3 nM.
Binder B4 has a Kd of 0.5 nM.

Each binder was assayed against T2, TWEAK (assay: SPR Biacore T200 25 C, apparent KD, TWEAK amine-coupled on C1 chip, antibody as analyte).
Binder B5 has a Kd of under 0.1 nM.
Binder B6 has a Kd of under 0.1 nM.
Work on B7 yielded a Kd of under 0.1 nM.
In the case of B8, the Kd is reported as under 0.1 nM.

What follows are binders tested against T3, human IL17 (assay: SPR Biacore T200 25 C, antibody captured via anti-human F(ab')2, human IL17 as analyte, 1:1 Langmuir).
Method: Around 6000 resonance units (RU) of the capturing system (15 μg/ml goat anti human F(ab′)2; Order Code: 28958325; GE Healthcare Bio-Sciences AB, Schweden) were coupled on a CM5 chip at pH 5.0 by using an amine coupling kit supplied by the GE Healthcare. The sample and system buffer was PBS-T (10 mM phosphate buffered saline including 0.05% Tween 20) pH 7.4. The bispecific antibody was captured by injecting a 50 nM solution for 90 sec at a flow of 10 μl/min. Association was measured by injection human IL17 in various concentrations in solution for 3 min at a flow of 30 μl/min starting with 50 nM in 1:1 serial dilutions. The dissociation phase was monitored for up to 10 min and triggered by switching from the sample solution to running buffer. The surface was regenerated twice by 60 sec wash with a 10 mM glycine pH 2.1 solution at a flow rate of 30 μl/min. Bulk refractive index differences were corrected by subtracting the response obtained from a goat anti human F(ab′)2 surface. Blank injections are also subtracted (=double referencing). For calculation of apparent KD and other kinetic parameters, the Langmuir 1:1 model was used.
B5 showed a Kd of 0.1 nM.
For B6, the Kd was 0.1 nM.
For B7, the Kd was 0.1 nM.
Work on B8 yielded a Kd of 0.1 nM.

These binders were tested against T4, human VEGFA-121-His (assay: SPR Biacore T200, VEGFA-121-His captured via anti-His, antibody as analyte, 1:1 Langmuir).
Method: as §1, with “VEGFA-121” for “Ang-2-RBD-Fc”, “10000” for “8000”, “of” for “of goat”, “His antibody (1” for “human F(ab′)₂ (10”, “His antibody;” for “human F(ab)′₂;”, “28995056;” for “28958325;”
(§2) VEFGA-121-His was captured by injecting a 0.5 μg/ml solution for 30 sec at a flow of 5 μl/min. The association was measured by injection of the indicated antibodies in various concentrations in solution for 180 sec at a flow of 30 μl/min starting with 1000 nM in 1:3 serial dilutions. The dissociation phase was monitored for up to 600 sec and triggered by switching from the sample solution to running buffer. The surface was regenerated by 60 sec washing with a Glycine pH 1.5 solution at a flow rate of 30 μl/min. Bulk refractive index differences were corrected by subtracting the response obtained from a anti His antibody surface. Blank injections are also subtracted (=double referencing). For calculation of KD and other kinetic parameters the Langmuir 1:1 model was used.
Binder B2 has a Kd of 12 nM.
In the case of B3, the Kd is reported as 13 nM.

Biological target: T4, human VEGFA-121-His
Experiment: as above
Remark: another data set of the same source
Method: as §1, with “VEGFA-121” for “Ang-2-RBD-Fc”, “10000” for “8000”, “of” for “of goat”, “His antibody (1” for “human F(ab′)₂ (10”, “His antibody;” for “human F(ab)′₂;”, “28995056;” for “28958325;”
as §2
With B1 the Kd was 17 nM.
Work on B4 yielded a Kd of 22 nM.
